Source: patent US20040254351A1

Target: G-CSF receptor
Test: cell-based or functional assay

| EC50/Neupogen (reporter activity in cells expressing the G-CSF receptor) (ratio to Neupogen) | Substance |
| --- | --- |
| 0.38 | Wild-type G-CSF (from UniProt P09919 31-207) (ligand) |
| 0.66 | G-CSF[C17A] (from UniProt P09919 31-207) (ligand) |
